# Molecular target: T1, peptide ARKRERAF(3-CF3)SFGHHA
# T1 chain: ARKRERAFSFGHHA
protein,measurement,value
serine/threonine p21-activated kinase PAK4 (protein) SPQREPQRVSHEQFRAALQLVVDPGDPRSYLDNFIKIGEGSTGIVCIATVRSSGKLVAVKKMDLRKQQRRELLFNEVVIMRDYQHENVVEMYNSYLVGDELWVVMEFLEGGALTDIVTHTRMNEEQIAAVCLAVLQALSVLHAQGVIHRDIKSDSILLTHDGRVKLSDFGFCAQVSKEVPRRKSLVGTPYWMAPELISRLPYGPEVDIWSLGIMVIEMVDGEPPYFNEPPLKAMKMIRDNLPPRLKNLHKVSPSLKGFLDRLLVRDPAQRATAAELLKHPFLAKAGPPASIVPLMRQNRTR,phosphorylation of the peptide followed by 19F NMR (150 nM PAK4),the reaction in the presence of PAK4 results in the appearance of a 19F signal with a chemical shift similar to the shift of a phosphorylated peptide
same,speed of the enzymatic reaction relative to AKT1,The speed of the enzymatic reaction of PAK4 is only 1/22 of the speed of AKT1

# — US20050048594
